This passage reports Kd results from paper PMC8511506 (2021).

The target of the assay is Ubiquitin (UniProt P0CG47 1-76). Description: ITC. Background: In ITC the heat of successive injections is recorded.

The term Kd denotes the free concentration of one partner at which half of the binding sites on the other are occupied at equilibrium, for simple one-to-one binding. Read a high Kd as a looser complex.

B1: CYLD CAP-Gly3 (aa 460-582) (domain or fragment)
chain: LAMPPGNSHGLEVGSLAEVKENPPFYGVIRWIGQPPGLNEVLAGLELEDECAGCTDGTFRGTRYFTCALKKALFVKLKSCRPDSRFASLQPVSNQIERCNSLAFGGYLSEVVEENTPPKMEKE
In turn, B1 returned a Kd of 319 µM.

B2: CYLD CAP-Gly2 (aa 226-313) (domain or fragment)
chain: ELPPLEINSRVSLKVGETIESGTVIFCDVLPGKESLGYFVGVDMDNPIGNWDGRFDGVQLCSFACVESTILLHINDIIPALSESVTQE
B2: the dissociation constant Kd stood at 136 µM.
